Measured values as given in article PMC11365945.

T1: Sh1 (Glycine soja, UniProt I1MNH4 1-230+=TTT+231-511, T232A;internal_change)
T1 sequence: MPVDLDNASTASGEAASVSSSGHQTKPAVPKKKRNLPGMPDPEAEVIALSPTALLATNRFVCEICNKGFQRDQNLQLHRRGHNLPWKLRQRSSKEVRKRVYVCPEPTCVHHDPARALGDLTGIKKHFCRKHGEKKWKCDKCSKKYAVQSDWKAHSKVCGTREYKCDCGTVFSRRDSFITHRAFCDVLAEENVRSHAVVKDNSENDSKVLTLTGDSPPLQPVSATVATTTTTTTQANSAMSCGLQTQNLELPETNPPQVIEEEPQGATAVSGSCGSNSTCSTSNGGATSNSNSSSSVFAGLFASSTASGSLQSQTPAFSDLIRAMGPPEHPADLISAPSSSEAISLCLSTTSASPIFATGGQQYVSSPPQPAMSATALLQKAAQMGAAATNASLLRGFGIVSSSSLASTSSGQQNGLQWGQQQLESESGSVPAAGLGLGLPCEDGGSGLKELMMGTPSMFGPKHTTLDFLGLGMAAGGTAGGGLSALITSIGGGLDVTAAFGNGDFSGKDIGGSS

B1: SHAT1-5 promoter S2-5 (dsDNA)
DNA 1: TCATGTTATTTTTAAATTATGAAACAAAATAATATATAAAATTCTTGCTTTATCACAAGT
DNA 2: ACTTGTGATAAAGCAAGAATTTTATATATTATTTTGTTTCATAATTTAAAAATAACATGA
B2: SHAT1-5 promoter S2-6 (dsDNA)
DNA 1: CCATTTTGAGGTATTTTTTATTTCTTCGTGTGAAATCTTGTACATTCTTTGGAGATGCTG
DNA 2: CAGCATCTCCAAAGAATGTACAAGATTTCACACGAAGAAATAAAAAATACCTCAAAATGG
B3: SHAT1-5 promoter S2-11 (dsDNA)
DNA 1: TTTTAAAATAAAAAAAAAAACAAATAGATATCATGTTATTTTTAAATTATGAAACAAAAT
DNA 2: ATTTTGTTTCATAATTTAAAAATAACATGATATCTATTTGTTTTTTTTTTTATTTTAAAA
B4: SHAT1-5 promoter S2-12 (dsDNA)
DNA 1: AATATATAAAATTCTTGCTTTATCACAAGTCCATTTTGAGGTATTTTTTATTTCTTCGTG
DNA 2: CACGAAGAAATAAAAAATACCTCAAAATGGACTTGTGATAAAGCAAGAATTTTATATATT

Target: T1, Sh1
Experiment: EMSA

Binder | binding result
B1 | binds
B2 | binds
B3 | binds
B4 | binds
